The values that follow come from patent US20150284436A1 (published 2015).

For data set [1], the target named is T1, N-TXNIP (N-terminal domain of TXNIP, residues 3-156) (human, UniProt Q9H3M7 3-156).
T1 construct: The NMR sample was 15N-labeled and its hexahistidine-tag was removed by rTEV; In the Ni-NTA co-purification it carried the N-terminal hexahistidine-tag; also called N-terminal TXNIP; ^15N-labeled N-TXNIP
T1 chain: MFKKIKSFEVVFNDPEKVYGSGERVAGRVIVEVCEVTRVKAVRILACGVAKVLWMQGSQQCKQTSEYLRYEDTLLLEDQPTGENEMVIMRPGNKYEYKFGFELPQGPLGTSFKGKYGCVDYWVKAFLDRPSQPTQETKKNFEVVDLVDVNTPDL
As to the kind of experiment: 1H-15N HSQC NMR. The protocol: NMR interaction experiments were carried out by recording ¹H-¹⁵N NMR HSQC spectra of ¹⁵N-labeled N-TXNIP upon addition of unlabeled TRX or its mutant, which was reduced with 5 mM DTT and dialyzed against 50 mM potassium phosphate (pH 6.6) prior to the interaction study to remove excess DTT.
The ¹H-¹⁵N HSQC spectra of all proteins were measured on a Bruker 900 MHz NMR spectrometer at the Korea Basic Science Institute (Ochang, Korea). The NMR measurements were performed using 0.3 mM ¹⁵N-labeled protein in 50 mM potassium phosphate (pH 6.6) containing 10% D₂O at 25° C. All NMR spectra were processed with Topspin 2.1 and analyzed with the program SPARKY 3.1.
Further, TRX muteins were added and ¹H-¹⁵N HSQC spectra of ¹⁵N-labeled N-TXNIP were monitored to examine interaction between N-TXNIP and TRX. […] In contrast, C62A, C69A, and C73A mutants caused a chemical shift similar to the wild-type TRX (FIG. 12).

The target of data set [2] is T2, TRX(C73A), tag-free, co-expressed in complex (human, UniProt P10599 1-105).
T2 construct: Used in complex with T-TXNIP(C36S/C49S/C120S/C170S/C205S/C267S) to avoid TRX dimerization
T2 chain: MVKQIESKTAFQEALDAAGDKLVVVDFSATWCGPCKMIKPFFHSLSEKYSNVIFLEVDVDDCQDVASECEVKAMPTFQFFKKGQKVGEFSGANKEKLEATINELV
As to the kind of experiment: purified co-expressed complex, gel filtration before and after ROS treatment. The protocol:
In detail, the TRX-T-TXNIP(C120S/C170S/C205S/C267S) complex was incubated with H₂O₂ at 37° C. for 30 minutes (a). The TRX(C73A)-T-TXNIP(C36S/C49S/C120S/C170S/C205S/C267S) complex was incubated with diamide at 37° C. for 30 minutes. The reaction products were injected onto a HiLoad™ 16/60 Superdex™ 75 gel filtration column at room temperature (b). The TRX Cys35 residue is essential for dissociation between TRX and TXNIP. The TRX(C35A)-T-TXNIP(C120S/C170S/C205S/C267S) complex was incubated with diamide at 37° C. for 60 minutes and the reaction products were injected onto the Superdex™ 75 10/300 GL gel filtration column (c). Eluted T-TXNIP and TRX after the ROS treatments are indicated for each reaction. All eluted proteins were analyzed by SDS-PAGE;
The TRX and T-TXNIP(C120S/C170S/C205S/C267S) complex was used to circumvent non-functional cysteine-induced aggregation. The complex (at a concentration of 0.05 mM) was incubated with H₂O₂ at concentrations in the range of 0 to 10 mM in 50 mM Tris-HCl (pH 8.0), 500 mM NaCl, and 10% glycerol at 37° C. The TRX([…]) and T-TXNIP(C36S/C49S/C120S/C170S/C205S/C267S) complex was also used to avoid TRX dimerization and non-functional cysteine-induced aggregation. This complex was incubated with 0 to 3 mM diamide in 50 mM Tris-HCl (pH 8.0), 500 mM NaCl, and 10% glycerol at 37° C. […]

Data set [3] concerns the molecule itself. The data set is described as follows: non-reducing SDS-PAGE after air oxidation. The protocol:
TRX(C73)-T-TXNIP(C36S/C49S/C120S/C170S/C205S/C267S) complex was incubated with 100 mM DTT and subjected to size exclusion chromatography to isolate T-TXNIP(C36S/C49S/C120S/C170S/C205S/C267S) from remained protein complex and TRX. The fractions containing T-TXNIP(C36S/C49S/C120S/C170S/C205S/C267S) were collected and dialyzed against 50 mM Tris-HCl (pH 8.0), 500 mM NaCl and 10% glycerol to induce the formation of disulfide bonds between TXNIP molecules;
For analysis by mass spectrometry in vitro, purified TRX(C73A)-T-TXNIP(C36S/C49S/C120S/C170S/C205S/C267S) complex was incubated with 100 mM DTT for 1 hour at room temperature and injected to the Superdex™ 200 10/300 GL gel filtration column installed on an AKTA purifier FPLC system to obtain T-TXNIP(C36S/C49S/C120S/C170S/C205S/C267S) from remained protein complex and TRX(C73 Å). The fractions containing T-TXNIP(C36S/C49S/C120S/C170S/C205S/C267S) were dialyzed against 50 mM Tris-HCl (pH 8.0), 500 mM NaCl and 10% glycerol to induce the formation of disulfide bonds between TXNIP molecules through air oxidation. Dialyzed proteins were then subjected to SDS-PAGE under non-reducing conditions.

Data set [4] has as its target T3, FLAG-tagged TXNIP with Cys63 substituted with serine (human, UniProt Q9H3M7 1-391).
T3 chain: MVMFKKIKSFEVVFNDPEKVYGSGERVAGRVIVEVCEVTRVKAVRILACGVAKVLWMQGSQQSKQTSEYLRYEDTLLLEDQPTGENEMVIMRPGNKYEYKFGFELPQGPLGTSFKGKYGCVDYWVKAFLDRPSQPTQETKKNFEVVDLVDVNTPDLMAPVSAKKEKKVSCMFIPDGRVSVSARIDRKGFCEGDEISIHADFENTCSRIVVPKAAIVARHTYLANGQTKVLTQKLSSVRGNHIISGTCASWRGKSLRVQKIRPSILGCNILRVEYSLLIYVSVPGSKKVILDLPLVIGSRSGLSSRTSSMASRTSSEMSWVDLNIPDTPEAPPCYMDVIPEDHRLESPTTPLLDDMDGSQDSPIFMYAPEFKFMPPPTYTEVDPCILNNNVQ
As to the kind of experiment: GST pull-down / co-IP from 293T lysates, Western blot. The protocol:
(§1) Coimmunoprecipitation assays were performed using lysates from 293T cells transfected with combinations of FLAG-tagged or HA-tagged TXNIP plasmids and GST-tagged or FLAG-tagged TXNIP plasmids. Immobilized proteins on FLAG-agarose beads or glutathione beads were visualized by Western blot analysis using anti-HA, anti-FLAG, or anti-GST antibodies. One percent of WCL was used as the input;
(§2) To test the in vivo interprotomer interaction between TXNIP molecules, HEK 293T cells were transfected with plasmids expressing HA-tagged-TXNIP and FLAG-tagged T-TXNIP. 24 hours later, the cells were harvested and lysed in the 50 mM iodoacetamide-containing buffer [0.5% Triton X-100, 150 mM NaCl, 10% glycerol, 1 mM NaF, 1 mM AEBSF, 2 μg/mL leupeptin, 5 μg/mL aprotinin and 20 mM HEPES (pH 7.2)]. After centrifugation at 16,000 rpm for 20 minutes, the supernatant was incubated with anti-FLAG M2 agarose (Sigma) at 4° C. for 12 hours. The immobilized proteins were collected by centrifugation and washed three times with the lysis buffer. The bound proteins were subjected to SDS-PAGE under reduced and non-reduced conditions. […] 24 hours later, the cells were harvested and lysed in the lysis buffer. […]
In general terms: A western blot detects proteins with antibodies after separation by electrophoresis.

Data set [5] deals with T4, FLAG-tagged TXNIP with Cys247 substituted with serine (human, UniProt Q9H3M7 1-391).
T4 chain: T3 chain with S63C, C247S
Described as above. The protocol:
as §1, §2

Substitutions are numbered along the chain they refer to. Numbers in names are those of the source.

B1: TRX C32A mutant (NMR sample) (enzyme)
chain: T2 chain with C32A, A73C
notes: not shown: C-terminal hexahistidine-tag from pET21 vector
On to B1, for which the binding result in data set [1] was “no binding”.

B2: T-TXNIP(C36S/C49S/C120S/C170S/C205S/C267S) (other)
chain: MFKKIKSFEVVFNDPEKVYGSGERVAGRVIVEVSEVTRVKAVRILASGVAKVLWMQGSQQCKQTSEYLRYEDTLLLEDQPTGENEMVIMRPGNKYEYKFGFELPQGPLGTSFKGKYGSVDYWVKAFLDRPSQPTQETKKNFEVVDLVDVNTPDLMAPVSAKKEKKVSSMFIPDGRVSVSARIDRKGFCEGDEISIHADFENTSSRIVVPKAAIVARHTYLANGQTKVLTQKLSSVRGNHIISGTCASWRGKSLRVQKIRPSILGSNILRVEYSLLIYVSVPGSKKVILDLPLVIGSRSGLSSRTSSMASRTSSEM
notes: 1 residues 3-317 (T-TXNIP) with the six printed substitutions; also called monomeric T-TXNIP mutant
B2: the binding result in data set [2] and in data set [3] was “binds” throughout.

B3: GST-fused TXNIP with Cys63 substituted with serine (other)
chain: T3 chain
Consider B3, for which the binding result in data set [4] is listed as “no binding”.

B4: GST-fused TXNIP with Cys247 substituted with serine (other)
chain: T3 chain with S63C, C247S
For the molecule B4, the binding result in data set [5] is recorded as “no binding”.
